Laboratory results from paper PMC11032491, “A conserved strategy to attack collagen: The activator domain in bacterial collagenases unwinds triple-helical collagen” (Proceedings of the National Academy of Sciences of the …, 2024).

Experiments:
[1] = target: Type I gelatin (heat-denatured acid-soluble type I atelocollagen from bovine hides) (bovine); experiment: ELISA; indirect ELISA; gelatin immobilised, ColQ1-CU G472V variants in solution; 37 °C (Fig. 4B)
[2] = target: Acid-soluble type I atelocollagen from bovine hides (bovine) (UniProt P02453); experiment: ELISA; indirect ELISA; soluble collagen immobilised, ColQ1-CU G472V variants in solution; 25 °C to preserve the triple-helical fold (Fig. 4C)
[3] = target: Type I gelatin (heat-denatured acid-soluble type I atelocollagen from bovine hides) (bovine); experiment: ELISA
[4] = target: Acid-soluble type I atelocollagen from bovine hides (bovine) (UniProt P02453); experiment: ELISA
[5] = target: Type I gelatin (heat-denatured acid-soluble type I atelocollagen from bovine hides); experiment: indirect ELISA; details: 37 °C; parent: est. 1.5 µM; read off a plot
[6] = target: type I gelatin (heat-denatured acid-soluble type I atelocollagen from bovine hides) (bovine) (UniProt P02453); experiment: ELISA
[7] = target: V-(GXY)26 (Streptococcus pyogenes); experiment: MST; NanoTemper Monolith NT.115, Protein Labeling Kit RED-NHS; 50 mM HEPES pH 7.5, 150 mM NaCl, 10 mM CaCl2, 10 µM ZnCl2, 0.05% Tween-20, 3 mM NaN3; with 1 mM ß-mercaptoethanol (reducing) (Fig. 5F)
[8] = target: V-(GXY)26 (Streptococcus pyogenes); experiment: MST; NanoTemper Monolith NT.115, Protein Labeling Kit RED-NHS; 50 mM HEPES pH 7.5, 150 mM NaCl, 10 mM CaCl2, 10 µM ZnCl2, 0.05% Tween-20, 3 mM NaN3; without ß-mercaptoethanol (nonreducing) (Fig. 5F)
[9] = target: V-domain of Scl2.3 (Streptococcus pyogenes); experiment: SDS-PAGE (SDS-stable oligomer); 12% nonreducing SDS-PAGE of 10 µM V-(GXY)26 incubated with or without ColG-CU at 25 °C (Fig. 2C)
[10] = target: T1, soluble type I collagen (acid-soluble type I atelocollagen from bovine hides) (bovine, UniProt P02453 162-1217; P02465 80-1117); experiment: ELISA; details: both partners purified
T1 construct: also called soluble collagen; tropocollagen

[11] = target: Acid-soluble type I atelocollagen from bovine hides (bovine, UniProt P02453 162-1217; P02465 80-1117); experiment: ELISA; details: both partners purified
Acid-soluble type I atelocollagen from bovine hides, sequence (P02453 162-1217, chain 1 of 2): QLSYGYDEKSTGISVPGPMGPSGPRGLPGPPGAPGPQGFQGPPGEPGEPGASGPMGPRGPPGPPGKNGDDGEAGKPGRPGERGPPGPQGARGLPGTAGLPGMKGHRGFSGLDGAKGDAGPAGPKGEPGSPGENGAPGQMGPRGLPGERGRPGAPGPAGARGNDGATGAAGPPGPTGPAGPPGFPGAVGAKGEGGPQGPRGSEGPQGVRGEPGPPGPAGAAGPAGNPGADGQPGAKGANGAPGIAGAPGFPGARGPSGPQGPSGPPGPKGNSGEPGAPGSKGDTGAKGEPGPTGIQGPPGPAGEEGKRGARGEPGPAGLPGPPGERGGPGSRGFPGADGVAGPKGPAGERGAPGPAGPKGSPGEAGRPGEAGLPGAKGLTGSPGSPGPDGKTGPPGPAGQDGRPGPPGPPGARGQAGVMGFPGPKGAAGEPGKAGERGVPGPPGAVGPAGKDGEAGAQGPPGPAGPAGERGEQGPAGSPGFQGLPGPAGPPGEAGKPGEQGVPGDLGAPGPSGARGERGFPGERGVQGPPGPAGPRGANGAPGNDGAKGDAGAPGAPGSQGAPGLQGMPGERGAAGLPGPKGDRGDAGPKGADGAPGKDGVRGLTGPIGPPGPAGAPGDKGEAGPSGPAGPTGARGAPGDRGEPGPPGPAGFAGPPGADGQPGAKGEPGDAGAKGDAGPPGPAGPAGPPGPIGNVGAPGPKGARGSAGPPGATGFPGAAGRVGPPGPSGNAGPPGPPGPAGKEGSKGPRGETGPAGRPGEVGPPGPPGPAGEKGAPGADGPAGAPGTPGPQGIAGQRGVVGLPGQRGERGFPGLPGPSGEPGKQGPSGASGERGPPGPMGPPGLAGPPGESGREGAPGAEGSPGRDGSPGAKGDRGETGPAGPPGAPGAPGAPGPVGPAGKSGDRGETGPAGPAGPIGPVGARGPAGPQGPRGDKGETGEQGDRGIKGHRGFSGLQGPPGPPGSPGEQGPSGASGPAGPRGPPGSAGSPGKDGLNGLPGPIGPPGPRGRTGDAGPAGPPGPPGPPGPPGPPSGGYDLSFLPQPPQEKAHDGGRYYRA
Acid-soluble type I atelocollagen from bovine hides, sequence (P02465 80-1117, chain 2 of 2): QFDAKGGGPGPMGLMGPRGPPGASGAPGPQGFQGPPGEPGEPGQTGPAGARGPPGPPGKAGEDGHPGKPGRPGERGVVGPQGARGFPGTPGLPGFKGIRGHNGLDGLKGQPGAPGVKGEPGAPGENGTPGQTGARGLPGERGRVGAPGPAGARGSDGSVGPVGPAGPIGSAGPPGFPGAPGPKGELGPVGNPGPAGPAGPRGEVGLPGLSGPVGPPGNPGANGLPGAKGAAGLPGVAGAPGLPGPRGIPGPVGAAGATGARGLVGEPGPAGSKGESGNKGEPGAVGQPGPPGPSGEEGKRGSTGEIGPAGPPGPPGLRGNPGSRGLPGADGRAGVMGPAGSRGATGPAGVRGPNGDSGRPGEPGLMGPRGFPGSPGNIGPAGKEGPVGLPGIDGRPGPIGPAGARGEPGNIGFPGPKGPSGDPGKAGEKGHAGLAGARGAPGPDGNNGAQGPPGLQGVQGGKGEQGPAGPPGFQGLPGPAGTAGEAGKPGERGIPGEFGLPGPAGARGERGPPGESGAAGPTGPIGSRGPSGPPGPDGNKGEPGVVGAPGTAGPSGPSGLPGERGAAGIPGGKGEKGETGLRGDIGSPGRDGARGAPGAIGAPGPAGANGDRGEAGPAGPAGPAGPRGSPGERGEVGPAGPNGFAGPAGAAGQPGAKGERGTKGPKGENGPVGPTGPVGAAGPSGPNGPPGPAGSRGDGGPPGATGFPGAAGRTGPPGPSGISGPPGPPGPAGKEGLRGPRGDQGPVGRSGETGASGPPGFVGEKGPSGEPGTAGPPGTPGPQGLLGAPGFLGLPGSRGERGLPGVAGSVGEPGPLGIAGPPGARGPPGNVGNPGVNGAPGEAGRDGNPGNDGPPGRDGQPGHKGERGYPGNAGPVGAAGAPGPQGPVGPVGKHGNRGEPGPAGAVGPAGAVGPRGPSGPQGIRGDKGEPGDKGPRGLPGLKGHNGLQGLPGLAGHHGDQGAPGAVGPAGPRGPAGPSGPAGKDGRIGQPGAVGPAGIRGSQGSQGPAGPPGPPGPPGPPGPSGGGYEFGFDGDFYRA

Acid-soluble type I atelocollagen from bovine hides (bovine), sequence (P02453 162-1217, chain 1 of 2): as the sequence (P02453 162-1217, chain 1 of 2) above
Acid-soluble type I atelocollagen from bovine hides (bovine), sequence (P02465 80-1117, chain 2 of 2, further chain): as the sequence (P02465 80-1117, chain 2 of 2) above
T1 sequence (P02453 162-1217, chain 1 of 2): as the sequence (P02453 162-1217, chain 1 of 2) above
T1 sequence (P02465 80-1117, chain 2 of 2): as the sequence (P02465 80-1117, chain 2 of 2) above
type I gelatin (heat-denatured acid-soluble type I atelocollagen from bovine hides) (bovine), sequence (P02453 23-1217, chain 1 of 2): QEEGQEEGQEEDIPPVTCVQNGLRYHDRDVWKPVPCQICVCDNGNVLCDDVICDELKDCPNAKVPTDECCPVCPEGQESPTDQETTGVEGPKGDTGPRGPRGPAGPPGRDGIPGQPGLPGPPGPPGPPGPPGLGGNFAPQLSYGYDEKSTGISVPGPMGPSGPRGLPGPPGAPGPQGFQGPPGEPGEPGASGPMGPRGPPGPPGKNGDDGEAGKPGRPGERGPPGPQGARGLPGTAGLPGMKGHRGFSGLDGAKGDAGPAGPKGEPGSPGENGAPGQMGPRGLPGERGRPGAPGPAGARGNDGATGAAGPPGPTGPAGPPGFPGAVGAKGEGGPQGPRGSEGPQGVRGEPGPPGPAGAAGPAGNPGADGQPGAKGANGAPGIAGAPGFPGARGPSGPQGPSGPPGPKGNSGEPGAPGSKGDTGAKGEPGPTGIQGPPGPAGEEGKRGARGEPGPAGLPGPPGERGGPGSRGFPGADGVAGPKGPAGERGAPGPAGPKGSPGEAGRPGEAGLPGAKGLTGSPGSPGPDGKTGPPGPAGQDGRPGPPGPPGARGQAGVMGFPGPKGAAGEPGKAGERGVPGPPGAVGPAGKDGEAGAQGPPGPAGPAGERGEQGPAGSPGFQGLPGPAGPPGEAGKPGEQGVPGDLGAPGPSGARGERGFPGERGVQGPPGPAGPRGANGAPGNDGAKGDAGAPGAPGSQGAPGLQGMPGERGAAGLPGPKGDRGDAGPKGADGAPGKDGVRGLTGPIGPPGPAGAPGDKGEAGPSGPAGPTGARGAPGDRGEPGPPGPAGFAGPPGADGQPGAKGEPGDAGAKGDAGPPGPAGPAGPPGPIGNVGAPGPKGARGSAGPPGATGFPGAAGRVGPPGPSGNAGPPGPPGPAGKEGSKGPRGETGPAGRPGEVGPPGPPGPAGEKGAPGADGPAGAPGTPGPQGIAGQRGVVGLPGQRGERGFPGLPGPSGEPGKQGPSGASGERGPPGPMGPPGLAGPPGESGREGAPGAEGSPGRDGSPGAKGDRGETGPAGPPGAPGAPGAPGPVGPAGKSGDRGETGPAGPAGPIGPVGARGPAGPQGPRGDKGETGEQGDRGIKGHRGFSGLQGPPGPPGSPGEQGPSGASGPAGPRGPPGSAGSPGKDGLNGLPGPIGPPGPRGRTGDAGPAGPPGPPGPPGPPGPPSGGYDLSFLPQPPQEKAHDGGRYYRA
type I gelatin (heat-denatured acid-soluble type I atelocollagen from bovine hides) (bovine), sequence (P02465 80-1117, chain 2 of 2, further chain): as the sequence (P02465 80-1117, chain 2 of 2) above

“ColQ1-CU G472V N226A (domain or fragment)” showed a Kd [1] of over 150 µM and a Kd [2] of over 150 µM.

“ColG-AD (Y119-S392) (from UniProt Q9X721 119-392) (domain or fragment)” was tested, and the Kd [3] was 0.11 µM.

With “ColQ1-CU G472V Y173A (domain or fragment)” the fold drop in binding affinity against ColQ1-CU G472V [1] was 15 fold.

With “ColG-CU E524A (Y119-G790) (domain or fragment)” the Kd [4] was 0.37 µM and the Kd [3] was 0.08 µM.

“ColQ1-CU G472V F176A (domain or fragment)” was tested, and the fold increase in affinity against ColQ1-CU G472V [2] was 20 fold.

ColQ1-CU G472V F123A gave a Kd [5] of 1.5 µM.

ColQ1-CU G472V R169A showed a Kd [5] of 2.7 µM.

With “ColG-PKD (I799-N880) (from UniProt Q9X721 799-880) (domain or fragment)” the Kd [6] was over 1000 µM.

In the case of “ColG-CBD2 (N1004-K1118) (from UniProt Q9X721 1004-1118) (domain or fragment)”, the Kd [3] is reported as 253 µM.

In the case of “ColG-PD E524A (D398-G790) (domain or fragment)”, the Kd [4] is reported as 497 µM and the Kd [3] is reported as 243 µM.

“ColQ1-CU G472V Y270A (domain or fragment)” gave a fold increase in affinity against ColQ1-CU G472V [2] of 8 fold.

In the case of “ColG-FL E524A (Y119-K1118) (from UniProt Q9X721 119-1118) (enzyme)”, the Kd [4] is reported as 0.024 µM and the Kd [3] is reported as 0.031 µM.

With ColQ1-CU G472V F176A the Kd [5] was 1.1 µM.

“ColG-CU CL4-G494V, noncrosslinked (reduced) (domain or fragment)” showed a Kd [7] of 2.9 µM.

“ColQ1-CU G472V R169A (domain or fragment)” was tested, and the fold increase in affinity against ColQ1-CU G472V [2] was 9 fold.

Work on “ColG-CU CL4-G494V, crosslinked (domain or fragment)” yielded a Kd [8] of 36 µM.

For V-domain of Scl2.3 (domain or fragment), the stoichiometry N [9] was 3.

ColQ1-CU G472V E166A gave a Kd [5] of 4.8 µM.

Work on ColQ1-CU G472V (domain or fragment) yielded a Kd [1] of 1.6 µM and a Kd [2] of 1.6 µM.

B1: ColG-PKD (I799-N880) (domain or fragment)
chain: IAKVTGPSTGAVGRNIEFSGKDSKDEDGKIVSYDWDFGDGATSRGKNSVHAYKKAGTYNVTLKVTDDKGATATESFTIEIKN
notes: source: E. coli Nico21 (DE3), purified
Molecule B1 has a Kd [10] of over 1000 µM.

B2: ColG-CBD2 (N1004-K1118) (domain or fragment)
chain: NEKLKEKENNDSSDKATVIPNFNTTMQGSLLGDDSRDYYSFEVKEEGEVNIELDKKDEFGVTWTLHPESNINDRITYGQVDGNKVSNKVKLRPGKYYLLVYKYSGSGNYELRVNK
modifications: fluorescently labeled in the fibrillar collagen assay (dye not stated)
notes: as for B1
For B2, the Kd [11] was 14 ± 1 µM.

B3: ColG-AD (Y119-S392) (domain or fragment)
chain: YDFEYLNGLSYTELTNLIKNIKWNQINGLFNYSTGSQKFFGDKNRVQAIINALQESGRTYTANDMKGIETFTEVLRAGFYLGYYNDGLSYLNDRNFQDKCIPAMIAIQKNPNFKLGTAVQDEVITSLGKLIGNASANAEVVNNCVPVLKQFRENLNQYAPDYVKGTAVNELIKGIEFDFSGAAYEKDVKTMPWYGKIDPFINELKALGLYGNITSATEWASDVGIYYLSKFGLYSTNRNDIVQSLEKAVDMYKYGKIAFVAMERITWDYDGIGS
modifications: fluorescently labeled in the fibrillar collagen assay (dye not stated)
notes: as for B1
B3 was tested, and the Kd [11] was 0.072 ± 0.009 µM.
